Results as given in IntAct's records for PubMed 31481669.

B1: EKC/KEOPS complex subunit LAGE3 (Homo sapiens), Q14657 (parent)
chain: MRDADADAGGGADGGDGRGGHSCRGGVDTAAAPAGGAPPAHAPGPGRDAASAARGSRMRPHIFTLSVPFPTPLEAEIAHGSLAPDAEPHQRVVGKDLTVSGRILVVRWKAEDCRLLRISVINFLDQLSLVVRTMQRFGPPVSR
partner: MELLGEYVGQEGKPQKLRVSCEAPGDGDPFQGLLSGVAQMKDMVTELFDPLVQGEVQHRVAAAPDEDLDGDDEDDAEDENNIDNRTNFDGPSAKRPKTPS

Variants of: B1
Settings: with gon7_human GON7, Q9BXV9

effect of a mutation on the interaction | Variant
with no effect | MRDADADAGGGADGGDGRGGHSCRGGVDTAAAPAGGAPPAHAPGPGRDAASAARGSRMRPHIFTLSVPFPTPLEAEIAHGSLAPDAEPHQRVVGKDLTVSGRILVVRWKAEDCRLLRISVINFLDQLSLVVRTMQRSGPPVSR [F137S]
with no effect | MRDADADAGGGADGGDGRGGHSCRGGVDTAAAPAGGAPPAHAPGPGRDAASAARGSRMRPHIFTLSVPFPTPLEAEIAHGSLAPDAEPHQRVVGKDLTVSGRILVFRWKAEDCRLLRISVINFLDQLSLVVRTMQRFGPPVSR [V106F]
